Data set [1] concerns the molecule itself. Kind of data set: dynamic light scattering; 1 mg/ml in PBS pH 7.4, filtered through 0.22 μm, 25 °C; hydrodynamic radius; self-association.
Data set [2] concerns the molecule itself. Kind of data set: AUC; sedimentation velocity; 0.5 mg/ml in 20 mM phosphate buffer pH 7.4, 18,000 rpm, 20 °C, An50Ti rotor; SEDFIT (Lamm equation); self-association into large oligomers.

B1: β-chain of human clusterin (β-Clu), recombinant (domain or fragment, UniProt P10909 228-449, looked up)
chain: SLMPFSPYEPLNFHAMFQPFLEMIHEAQQAMDIHFHSPAFQHPPTEFIREGDDDRTVCREIRHNSTGCLRMKDQCDKCREILSVDCSTNNPSQAKLRRELDESLQVAERLTRKYNELLKSYQWKMLNTSSLLEQLNEQFNWVSRLANLTQGEDQYYLRVTTVASHTSDSDVPSGVTEVVVKLFDSDPITVTVPVEVSRKNPKFMETVAEKALQEYRKKHREE
notes: The printed primers encode M-SLMPFSP... at the start and ...HREE-stop at the end; The NdeI site of the forward primer adds an initiator Met before S228; Not glycosylated (bacterial). cDNA came from IMR32 human neuroblastoma cells; also called β-clusterin
In the case of B1, the binding result in data set [1] is reported as “binds”.

B2: α-chain of human clusterin (α-Clu), recombinant (domain or fragment, UniProt P10909 23-227, looked up)
chain: DQTVSDNELQEMSNQGSKYVNKEIQNAVNGVKQIKTLIEKTNEERKTLLSNLEEAKKKKEDALNETRESETKLKELPGVCNETMMALWEECKPCLKQTCMKFYARVCRSGSGLVGRQLEEFLNQSSPFYFWMNGDRIDSLLENDRQQTHMLDVMQDHFSRASSIIDELFQDRFFTREPQDTYHYLPFSLPHRRPHFFFPKSRIVR
notes: The printed primers encode M-DQTVSD... at the start and ...RIVR-stop at the end; Printed theoretical subunit mass: 24 kDa; The NdeI site of the forward primer adds an initiator Met before D23; Not glycosylated (bacterial). cDNA came from IMR32 human neuroblastoma cells; also called α-clusterin
For B2, the stoichiometry N – broadly, a count of units in the complex or per binding partner – in data set [2] is ~60 subunits per oligomer.

These data come from PMC5264606, “Clusterin: full-length protein and one of its chains show opposing effects on cellular lipid accumulation” (Scientific Reports, 2017).
